In patent publication US20240301052A1 (LANOVA MEDICINES DEVELOPMENT, published 2024):

T1: human SLC34A2 (human, UniProt O95436 1-690)
T1 sequence (looked up): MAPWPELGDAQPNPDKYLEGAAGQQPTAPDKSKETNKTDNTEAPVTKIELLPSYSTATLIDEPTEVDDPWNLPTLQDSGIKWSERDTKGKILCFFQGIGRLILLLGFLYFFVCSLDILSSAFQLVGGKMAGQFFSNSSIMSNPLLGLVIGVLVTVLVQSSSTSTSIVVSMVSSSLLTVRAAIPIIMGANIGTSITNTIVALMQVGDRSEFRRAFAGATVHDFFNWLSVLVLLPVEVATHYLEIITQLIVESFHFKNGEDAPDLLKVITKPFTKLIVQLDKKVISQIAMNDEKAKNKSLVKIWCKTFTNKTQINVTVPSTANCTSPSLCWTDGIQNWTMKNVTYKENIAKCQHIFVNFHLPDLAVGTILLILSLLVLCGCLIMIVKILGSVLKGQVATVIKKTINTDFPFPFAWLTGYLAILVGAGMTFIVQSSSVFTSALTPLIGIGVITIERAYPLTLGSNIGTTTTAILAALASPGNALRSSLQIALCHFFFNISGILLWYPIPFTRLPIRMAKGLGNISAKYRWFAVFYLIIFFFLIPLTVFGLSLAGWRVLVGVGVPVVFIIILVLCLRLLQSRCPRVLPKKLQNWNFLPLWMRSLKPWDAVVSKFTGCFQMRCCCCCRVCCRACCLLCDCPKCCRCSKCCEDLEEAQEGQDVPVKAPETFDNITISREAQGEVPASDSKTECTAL

T2: Rhesus SLC34A2 (Rhesus, UniProt F7HDA3 1-690)
T2 construct: whole, on cells
T2 sequence: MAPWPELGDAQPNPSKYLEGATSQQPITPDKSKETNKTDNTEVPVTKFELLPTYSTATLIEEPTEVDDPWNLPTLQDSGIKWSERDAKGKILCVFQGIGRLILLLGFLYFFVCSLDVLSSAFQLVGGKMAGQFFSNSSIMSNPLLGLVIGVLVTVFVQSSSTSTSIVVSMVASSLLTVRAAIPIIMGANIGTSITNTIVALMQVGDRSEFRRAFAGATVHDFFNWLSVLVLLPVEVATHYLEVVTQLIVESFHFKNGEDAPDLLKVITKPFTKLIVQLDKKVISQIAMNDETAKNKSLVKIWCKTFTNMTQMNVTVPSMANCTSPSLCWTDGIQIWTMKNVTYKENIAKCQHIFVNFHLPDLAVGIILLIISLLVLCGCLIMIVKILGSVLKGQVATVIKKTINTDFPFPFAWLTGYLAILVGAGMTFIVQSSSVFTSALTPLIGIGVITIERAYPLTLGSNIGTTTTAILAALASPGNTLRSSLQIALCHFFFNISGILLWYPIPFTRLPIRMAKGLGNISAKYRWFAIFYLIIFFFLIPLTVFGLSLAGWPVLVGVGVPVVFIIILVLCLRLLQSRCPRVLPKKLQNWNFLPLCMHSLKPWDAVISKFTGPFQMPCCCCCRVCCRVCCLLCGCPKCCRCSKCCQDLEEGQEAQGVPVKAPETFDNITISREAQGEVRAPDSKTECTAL

T3: Cynomolgus SLC34A2 (Cynomolgus, UniProt A0A2K5UHY1 1-690)
T3 construct: whole, on cells; also called Cyno SLC34A2
T3 sequence: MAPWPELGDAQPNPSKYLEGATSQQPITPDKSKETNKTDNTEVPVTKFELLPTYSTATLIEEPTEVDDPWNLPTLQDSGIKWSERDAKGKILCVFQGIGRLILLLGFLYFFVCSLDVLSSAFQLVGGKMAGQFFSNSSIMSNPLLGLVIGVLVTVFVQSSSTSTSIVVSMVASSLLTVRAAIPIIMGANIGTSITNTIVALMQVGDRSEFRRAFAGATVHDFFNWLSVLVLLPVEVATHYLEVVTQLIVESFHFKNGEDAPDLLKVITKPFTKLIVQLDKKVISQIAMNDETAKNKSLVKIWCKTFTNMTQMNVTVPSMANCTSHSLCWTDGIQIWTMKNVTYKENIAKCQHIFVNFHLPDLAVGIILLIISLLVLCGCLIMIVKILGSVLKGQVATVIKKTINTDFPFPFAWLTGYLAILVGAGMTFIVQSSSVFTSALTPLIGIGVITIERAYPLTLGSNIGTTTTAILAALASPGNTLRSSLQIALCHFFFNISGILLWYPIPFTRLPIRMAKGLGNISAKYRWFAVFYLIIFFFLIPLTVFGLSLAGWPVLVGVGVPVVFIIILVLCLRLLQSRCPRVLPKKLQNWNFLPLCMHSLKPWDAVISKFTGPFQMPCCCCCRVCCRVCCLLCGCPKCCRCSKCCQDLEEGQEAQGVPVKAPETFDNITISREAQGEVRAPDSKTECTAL


Assays:
human SLC34A2 [1] = target: T1, human SLC34A2; assay: cell-based or functional assay
Rhesus SLC34A2 = target: T2, Rhesus SLC34A2; assay: FACS, HEK293/Rhesus SLC34A2 cells
Method: (§1) Briefly, the Rhesus SLC34A2 expressing HEK293 engineering cells (HEK293/Rhesus_SLC34A2) were incubated with chimeric Abs (from 200 nM, 4 folds dilution, 8 points). After incubation at 4° C. for 60 minutes, the cells were washed with FACS buffer twice, then stained with fluorescent conjugated secondary antibody at 4° C. for 30 minutes. After that the cells were washed twice and analyzed by flow cytometry.

Cynomolgus SLC34A2 = target: T3, Cynomolgus SLC34A2; assay: FACS, cells expressing Cynomolgus SLC34A2
human SLC34A2 [2] = target: T1, human SLC34A2; assay: cell-based or functional assay; remark: listed apart in the source
human SLC34A2 [3] = target: T1, human SLC34A2; assay: FACS, RMG-1 cells
Method: Based on the foregoing cell-based binding results, some of the chimeric antibodies were selected for further cell based binding on human SLC34A2 expressing cells using flow cytometry. RMG-1 cells were incubated with the selected chimeric antibodies (from 200 nM, 4 folds dilution, 8 points). After incubation at 4° C. for 60 minutes, the cells were washed with FACS buffer twice, then stained with fluorescent conjugated secondary antibody at 4° C. for 30 minutes. Afterwards the cells were washed twice and analyzed by flow cytometry.

human SLC34A2 [4] = target: T1, human SLC34A2; assay: FACS, HEK293/human SLC34A2 cells
Method: as §1, with “OVCAR3 cells or HEK293 cells expressing human” for “the Rhesus”, “SLC34A2” for “SLC34A2 expressing HEK293 engineering cells (HEK293/Rhesus_SLC34A2)”, “antibodies” for “Abs”

human SLC34A2 [5] = target: T1, human SLC34A2; assay: FACS, OVCAR3 cells
In short: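 Chimeric hIgG1 antibodies titrated from 200 nM (4-fold, 8 points) on OVCAR3 cells or HEK293 cells expressing human SLC34A2, 60 min at 4° C. Bound antibody detected with fluorescent secondary antibody (30 min, 4° C) and measured by flow cytometry.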

human SLC34A2 [6] = target: T1, human SLC34A2; assay: FACS, OVCAR3 cells; remark: listed apart in the source

| Binder | EC50 (Rhesus SLC34A2) | Top (MFI) (Rhesus SLC34A2) | EC50 (Cynomolgus SLC34A2) | Top (MFI) (Cynomolgus SLC34A2) | ADCC reporter EC50 (human SLC34A2 [2]) | ADCC reporter Top (MFI) (human SLC34A2 [2]) | EC50 (human SLC34A2 [3]) | Top (MFI) (human SLC34A2 [3]) | EC50 (human SLC34A2 [4]) | Top (MFI) (human SLC34A2 [4]) | EC50 (human SLC34A2 [5]) | Top (MFI) (human SLC34A2 [5]) | EC50 (human SLC34A2 [6]) | Top (MFI) (human SLC34A2 [6]) | cytotoxicity EC50 (human SLC34A2 [1]) | cytotoxicity Inhibition % (human SLC34A2 [1]) |
| --- | --- | --- | --- | --- | --- | --- | --- | --- | --- | --- | --- | --- | --- | --- | --- | --- |
| xi87H12B7 hIgG1 (antibody, V domains shown, chimeric, hIgG1) VH: QVQLQQPGAEVVRPGASVKMSCKASGYTFTSYIVHWVKQPPGQGLEWIGAIYPGNGDTSYIQKFKGRATLTADKSSSTVYMQLSSLTSEDSAVYYCARGHYYGSAAWFGFWGQGTLVTVSA VL: DILLTQSPAILSVSPGERVSFSCRASQNIGTSIHWYQQRTNDSPRLLMRYASESVSGIPSRFSGSGSGTDFTLSINSVESEDIADYYCQQSNTWPLTFGAGTKLELK | 2.85 nM | 18300 MFI | 7.66 nM | 4710 MFI | 5.1 nM | 195000 MFI | 9.11 nM | 9660 MFI | 1.62 nM | 44900 MFI | 5.43 nM | 27800 MFI |  |  | 0.35 nM | 82.6% |
| xi78D1B10 hIgG1 (antibody, V domains shown, chimeric, hIgG1) VH: QVQLQQPGADLVKPGASVKLSCKASGFTFTSYIIHWVKQTPGQGLEWIGAIYPGNGDTSYIQKFKGRATLTADKSSTTAYMQLGGLTSEDSAVYYCARGTYGSSAWFVYWGQGTLVTVSA VL: DIVLTQSPATLSVTPGDSVSLSCRASQSISNNLYWYQQKSHESPRLLIKYASQSISGIPSRFRGSGSGTDFTLSINSVETEDFGMYFCQQSNSWPLTFGAGTKLELK | 1.58 nM | 16000 MFI | 1.5 nM | 4400 MFI | 2.6 nM | 212000 MFI | 2.1 nM | 9860 MFI | 1.26 nM | 47700 MFI | 2.52 nM | 27500 MFI |  |  | 0.5 nM | 94% |
| 91C9F1.p1.z3 hIgG1 (antibody, V domains shown, humanized hIgG1) VH: QVQLVQSGAEVKKPGSSVKVSCKASGFFFTEYIIHWVRQAPGQGLEWMGGIIPNNDVTNYKQNFRGRVTITADESTSTAYMELSSLRSEDTAVYYCARWRNAYYSAMDSWGQGTTVTVSS VL: DIQVTQSPSSLSTSVGDRVTITCTASQDVGTAVAWYQQKPGKSPKLLIYWASTRHTGVPERFTGSGSGTDFTLTISSVQPEDVATYFCQQYRTSPLTFGVGTKVEIK |  |  |  |  |  |  |  |  |  |  |  |  | 4.04 nM | 35500 MFI |  |  |
| 91C9F1.p1.z2 hIgG1 (antibody, V domains shown, humanized hIgG1) VH: QVQLVQSGAEVKKPGSSVKVSCKASGFFFTEYIIHWVRQAPGQGLEWMGGIIPNNDVTNYKQNFRGRVTITADESTSTAYMELSSLRSEDTAVYYCARWRNAYYSAMDSWGQGTTVTVSS VL: DIQMTQSPSSLSTSVGDRVTITCTASQDVGTAVAWYQQKPGKSPKLLIYWASTRHTGVPERFSGSGSGTDFTLTISSLQPEDVATYFCQQYRTSPLTFGGGTKVEIK |  |  |  |  |  |  |  |  |  |  |  |  | 3.32 nM | 34500 MFI |  |  |

Further lines, with some results ahead:

| EC50 (Rhesus SLC34A2) | Top (MFI) (Rhesus SLC34A2) | EC50 (Cynomolgus SLC34A2) | Top (MFI) (Cynomolgus SLC34A2) | ADCC reporter EC50 (human SLC34A2 [2]) | ADCC reporter Top (MFI) (human SLC34A2 [2]) | EC50 (human SLC34A2 [3]) | Top (MFI) (human SLC34A2 [3]) | EC50 (human SLC34A2 [4]) | Top (MFI) (human SLC34A2 [4]) | EC50 (human SLC34A2 [5]) | Top (MFI) (human SLC34A2 [5]) | EC50 (human SLC34A2 [6]) | Top (MFI) (human SLC34A2 [6]) | Binder | cytotoxicity EC50 (human SLC34A2 [1]) | cytotoxicity Inhibition % (human SLC34A2 [1]) |
| --- | --- | --- | --- | --- | --- | --- | --- | --- | --- | --- | --- | --- | --- | --- | --- | --- |
| 2.38 nM | 18700 MFI | 2.51 nM | 3580 MFI | 3.3 nM | 382000 MFI | 9.05 nM | 10000 MFI | 2.48 nM | 106000 MFI | 11 nM | 46200 MFI |  |  | xi94E9B12 hIgG1 (antibody, V domains shown, chimeric, hIgG1) VH: QVQLQQPGAELVKPGASVKMSCKASGYTFTSYNMQWVKQTYGQGLEWIGAISPGSGETSYNQNFKVKATLTADKISSTAYMQLSSLTSEDSAVYYCARAARAEGWFAYWGQGTLVTVSA VL: DIVMTQSHKFMSTSVGDRVSITCKASQDVGHAVVWYQQKPGQFPKLLIYWASTRHAGVPDRFTGSGSGTDFTLTISNVQSEDLADYFCQQFRSIPLTFGSGTKLEIK | 0.85 nM | 83.6% |
|  |  |  |  |  |  |  |  |  |  |  |  | 3.78 nM | 34200 MFI | 91C9F1.p1.z1 hIgG1 (antibody, V domains shown, humanized hIgG1) VH: QVQLVQSGAEVKKPGSSVKVSCKASGFFFTEYIIHWVRQAPGQGLEWMGGIIPNNDVTNYKQNFRGRVTITADESTSTAYMELSSLRSEDTAVYYCARWRNAYYSAMDSWGQGTTVTVSS VL: DIQMTQSPSSLSASVGDRVTITCTASQDVGTAVAWYQQKPGKVPKLLIYWASTRHTGVPSRFSGSGSGTDFTLTISSLQPEDVATYYCQQYRTSPLTFGGGTKVEIK |  |  |
